Data on one substance can be found in patent US5705355A, “Hirudin, pharmaceutical compositions comprising it and their use” (Transgene, S.A., priority 1984, dated 1998).

Read-outs that look alike come from different tables or passages of the source.

One data set concerns rabbits. The conditions noted are these: intravenously and subcutaneously; cited from earlier work.
Data set [1] concerns the target T1, thrombin (Homo sapiens, UniProt P00734). To be noted: first estimate; read-out: dissociation constant of the 1:1 thrombin-hirudin complex; cited from earlier work.
For a further data set, the system named is DIC. The conditions noted are these: rat, in vivo; cited from earlier work.
Data set [2] relates to rats, dogs, rabbits and mice. To be noted: in vivo, iv; cited from earlier work.
The test system of data set [3] is plasmin, chymotrypsin A, trypsin, papain, pepsin, subtilopeptidase A. The conditions noted are these: cited from earlier work.
For data set [4], the target named is T1, thrombin. To be noted: cited from earlier work.
Data set [5] is described as follows: heat / acid-heat treatment (70° C., pH 2.8, 15 min), antithrombin activity afterwards. Type of data set: physicochemical. On the procedure:
In order to characterize the hirudin obtained from E. coli, analysis was performed directly on culture samples after induction, which were heated to 70° C. for 15 min or heated to 70° C. after reduction of the pH to 2.8 with HCl.
In the latter case, the pH of the extract was brought back to neutral before being assayed. […] This can reflect either the degradation or the inactivation of constituents of the extract which inhibited the action of hirudin, or possibly the rather low pH and the heating stage may, in some cases, provide for a more complete reforming of the disulfide bridges which are needed for hirudin to show maximum activity. […]
When the labeled materials from non-induced PTG718 cultures and from cultures at 3 and 5 hours after induction are treated at 70° C. and at pH 2.8 for 15 min, centrifuged to remove the denatured proteins and analyzed on an SDS-polyacrylamide gel, it is clear that the bulk of the labeled E. coli proteins are removed from the sample (FIG. 9-- lanes 1 and 2). […]
Another portion, is adjusted to pH 2.8 with dilute HCl, and then heated to 70° C. for 15 minutes. […] The supernatant is neutralized by adding dilute NaOH and the antithrombin activity is then measured. After the small modifications in volume due to the acidification and neutralization are taken into account, it can be calculated that 100% of the original activity survives this acid/heat treatment. […]

The conditions of data set [6]: in vivo; cited from earlier work.
For another data set, the system named is mice. The conditions noted are these: cited from earlier work.

A word on the LD50: it is the dose at which mortality reaches 50%.

Turning to hirudin, the tolerated dose result in the data set with rabbits is listed as “up to 10 mg/kg”; in the data set on mice, “up to 1 g per kg”. For the same substance, the Kd on thrombin [1] was 0.08 nM. The “treating DIC compared with heparin” value with DIC is “far superior to heparin”. Moreover, the tolerance result in data set [2] was “well tolerated”. Further, in data set [3] (chymotrypsin A), the “hirudin activity on digestion with chymotrypsin A” value is listed as “resisted”. Also, in data set [3] (papain), the “hirudin activity on digestion with papain” value is “sensitive”. The “hirudin activity on digestion with pepsin” value in [3] (pepsin) is “sensitive”. The “hirudin activity on digestion with plasmin” value in data set [3] (plasmin) is on record as “resisted”. Further, in data set [3] (subtilopeptidase A), the “hirudin activity on digestion with subtilopeptidase A” value is given as “sensitive”. The “hirudin activity on digestion with trypsin” value in data set [3] (trypsin) is “resisted”. The results for the specific activity with thrombin [4] (after further stages of purification), with thrombin [4] (hirudin extracted from whole leeches) and in the data set with thrombin [4] (purified approximately 650 times from heads of leeches) were 10,400 U/mg, 6,500 anti-thrombin units per milligram and 8,500 units per milligram, respectively. The “activity relative to the initial hirudin activity” value at thrombin [4] (sulfate ester (Tyr 63) made to disappear completely) is given as 55%. Also, the “resistance to heat treatment under conditions of quite low pH” value in [5] is given as “resistance to heat treatment”. For the same substance, the “loss in activity after heat or acid/heat treatment” value in data set [5] (70° C. for 15 min, or 70° C. after reduction of the pH to 2.8) is listed as “no loss in activity”. Also, the elimination result in data set [6] was “rapidly eliminated”. Besides, the LD50 is on record as > 500,000 U/kg of body weight in the data set on mice and more than 60 mg/kg in the data set on mice (same value expressed by weight). Besides, the sensitization reactions result in the data set with mice (repeated injections over a period of two weeks) was “do not lead to sensitization reactions”.
